Measured values: US20220267469A1

Experiments:
[1] = target: Biotinylated human BSSL (human) (UniProt P19835); assay: flow cytometry displacement assay; 3.0 ug antibody, 1 ug b-hBSSL
[2] = target: Biotinylated human BSSL (human) (UniProt P19835); assay: flow cytometry displacement assay; 0.5 ug antibody, 1 ug b-hBSSL
[3] = target: Biotinylated human BSSL (human) (UniProt P19835); assay: flow cytometry displacement assay; 1.5 ug antibody, 1 ug b-hBSSL
[4] = target: Biotinylated human BSSL (human) (UniProt P19835); assay: flow cytometry displacement assay; 2.0 ug antibody, 1 ug b-hBSSL
[5] = target: Biotinylated human BSSL (human) (UniProt P19835); assay: flow cytometry displacement assay; 1.0 ug antibody, 1 ug b-hBSSL

Sequence of Biotinylated human BSSL (human) (P19835 other isoform, or with tags, fused parts or gaps): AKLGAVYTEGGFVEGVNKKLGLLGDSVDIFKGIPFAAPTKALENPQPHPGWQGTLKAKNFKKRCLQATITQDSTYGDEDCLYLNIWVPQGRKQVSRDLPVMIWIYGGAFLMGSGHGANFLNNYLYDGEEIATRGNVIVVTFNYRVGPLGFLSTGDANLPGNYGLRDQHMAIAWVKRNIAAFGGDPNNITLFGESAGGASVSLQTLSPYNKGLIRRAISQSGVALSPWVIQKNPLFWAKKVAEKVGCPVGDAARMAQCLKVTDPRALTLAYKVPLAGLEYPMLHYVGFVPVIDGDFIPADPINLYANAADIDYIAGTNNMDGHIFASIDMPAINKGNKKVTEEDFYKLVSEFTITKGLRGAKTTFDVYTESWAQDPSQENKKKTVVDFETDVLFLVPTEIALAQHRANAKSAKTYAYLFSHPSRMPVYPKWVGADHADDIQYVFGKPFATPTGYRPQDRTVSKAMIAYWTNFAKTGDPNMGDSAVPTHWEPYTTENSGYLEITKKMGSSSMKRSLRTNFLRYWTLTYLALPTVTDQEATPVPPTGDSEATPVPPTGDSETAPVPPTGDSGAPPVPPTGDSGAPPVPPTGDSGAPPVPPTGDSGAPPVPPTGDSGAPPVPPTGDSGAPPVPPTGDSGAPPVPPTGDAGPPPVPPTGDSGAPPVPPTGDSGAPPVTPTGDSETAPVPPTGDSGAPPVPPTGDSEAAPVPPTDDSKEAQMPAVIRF

Substance: anti-human alpha-synuclein mlgG1 (antibody)
- percentage reduction of b-hBSSL binding to CD14+ monocytes [1]: -7%
- percentage reduction of b-hBSSL binding to CD14+ monocytes [2]: -8%
- percentage reduction of b-hBSSL binding to CD14+ monocytes [3]: -4%
- percentage reduction of b-hBSSL binding to CD14+ monocytes [4]: -1%
- percentage reduction of b-hBSSL binding to CD14+ monocytes [5]: -2%
